We go through 94 variants from the supplement of paper PMC10567573.

B1: PTPLAD1 (parent)
chain: YSFYMLTCIDMDWKVLTWLRYTLW
B2: TPRG1 (parent)
chain: ETIQGFWLLTKIDHWNNEKERILL
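Note: lentivirally expressed fusions sorted by FACS into six bins by GFP to DsRed ratio, PSI derived from sequencing read proportions per bin multiplied by bin number.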

The variants in one data set derive from B1. The data set can be described thus: protein stability index of a GFP-peptide fusion (GPS, HEK-293T) (PSI 1-6); higher = more stable. The settings on record: c terminus: a fixed tail appended.
For YSFYMLTCIDMDWKVLTWLVYTLW [R20V], the protein stability index was 2.13.

Turning to YSFYMLTCIDMDWKVLTWLYYTLW [R20Y], the protein stability index was determined as 2.42.

YSFYMLTCIDMDWKVLTWLKYTLW [R20K]: the protein stability index worked out at 3.46.

YSFYMLTCIDMDWKVLTWLGYTLW [R20G]: the protein stability index was found to be 3.

For the variant YQFYMLTCIDMDWKVLTWLRYTLW [S2Q], the protein stability index worked out at 1.97.

Turning to YKFYMLTCIDMDWKVLTWLRYTLW [S2K], the protein stability index was found to be 5.08.

Regarding YSFYMLTCIDMDWKVLTFLRYTLW [W18F], the protein stability index is 3.34.

Take YSFYMLTCIDMDWKVLTWLRYFLW [T22F]: the protein stability index worked out at 2.08.

Consider YSFYMLTCIDMDWKVLTWLRYRLW [T22R], for which the protein stability index came to 2.25.

On to YSFYMLTCIDMDWKTLTWLRYTLW [V15T], for which the protein stability index was determined as 2.91.

On to YSFYMLTCIDMDWKKLTWLRYTLW [V15K], for which the protein stability index turned out to be 3.92.

Regarding YSFYMLTSIDMDWKVLTWLRYTLW [C8S], the protein stability index was 2.62.

Turning to YSFYMLTDIDMDWKVLTWLRYTLW [C8D], the protein stability index is 2.

For the variant YSFYMLTPIDMDWKVLTWLRYTLW [C8P], the protein stability index is 1.7.

As for YSFYMLTCIDMDLKVLTWLRYTLW [W13L], the protein stability index came to 2.72.

Consider YSFYMLTCIDMDPKVLTWLRYTLW [W13P], for which the protein stability index amounted to 3.04.

As to YSFYMLTCIDMDWKVLTWLRYTLD [W24D], the protein stability index was 4.01.

With YSFYGLTCIDMDWKVLTWLRYTLW [M5G], the protein stability index was found to be 2.15.

Take YSFYMLTCIDMDWLVLTWLRYTLW [K14L]: the protein stability index came out at 3.3.

Regarding YSFYMLTCIDMDWMVLTWLRYTLW [K14M], the protein stability index stood at 1.28.

Consider YSFYMLTCCDMDWKVLTWLRYTLW [I9C], for which the protein stability index is 1.58.

Regarding YSFYMLTCWDMDWKVLTWLRYTLW [I9W], the protein stability index turned out to be 1.96.

Turning to YSWYMLTCIDMDWKVLTWLRYTLW [F3W], the protein stability index came out at 2.37.

On to YSLYMLTCIDMDWKVLTWLRYTLW [F3L], for which the protein stability index was 1.03.

As for YSNYMLTCIDMDWKVLTWLRYTLW [F3N], the protein stability index worked out at 1.46.

With YSFYMLTCIDMDWKVITWLRYTLW [L16I], the protein stability index came to 1.75.

For YSFYMLTCIDMDWKVNTWLRYTLW [L16N], the protein stability index is 4.69.

As to YSFYMLTCIDMDWKVYTWLRYTLW [L16Y], the protein stability index was 1.59.

Consider YSFYMLLCIDMDWKVLTWLRYTLW [T7L], for which the protein stability index worked out at 2.43.

With YSFHMLTCIDMDWKVLTWLRYTLW [Y4H], the protein stability index amounted to 3.11.

As to YSFIMLTCIDMDWKVLTWLRYTLW [Y4I], the protein stability index worked out at 3.63.

As for YSFYMKTCIDMDWKVLTWLRYTLW [L6K], the protein stability index stood at 1.28.

Take MSFYMLTCIDMDWKVLTWLRYTLW [Y1M]: the protein stability index stood at 3.57.

For the variant YSFYMLTCIDMDWKVLYWLRYTLW [T17Y], the protein stability index was determined as 1.8.

On to YSFYMLTCIDMDWKVLTWSRYTLW [L19S], for which the protein stability index turned out to be 1.22.

On to YSFYMLTCIDMWWKVLTWLRYTLW [D12W], for which the protein stability index was determined as 1.82.

For YSFYMLTCIDMPWKVLTWLRYTLW [D12P], the protein stability index came out at 1.94.

Turning to YSFYMLTCIDFDWKVLTWLRYTLW [M11F], the protein stability index was 2.15.

YSFYMLTCIDTDWKVLTWLRYTLW [M11T]: the protein stability index was found to be 1.21.

The variants in the next data set derive from B2. The data set is described as above. The note with it: c terminus: a fixed tail appended.
On to ETIHGFWLLTKIDHWNNEKERILL [Q4H], for which the protein stability index was 1.97.

ETIDGFWLLTKIDHWNNEKERILL [Q4D]: the protein stability index turned out to be 3.98.

Take ETITGFWLLTKIDHWNNEKERILL [Q4T]: the protein stability index worked out at 1.88.

Regarding ETIYGFWLLTKIDHWNNEKERILL [Q4Y], the protein stability index amounted to 2.77.

Regarding ETIMGFWLLTKIDHWNNEKERILL [Q4M], the protein stability index was determined as 3.23.

On to ETIPGFWLLTKIDHWNNEKERILL [Q4P], for which the protein stability index amounted to 3.54.

Take ETIEGFWLLTKIDHWNNEKERILL [Q4E]: the protein stability index was found to be 2.23.

For the variant ETIKGFWLLTKIDHWNNEKERILL [Q4K], the protein stability index was found to be 2.89.

Regarding ETINGFWLLTKIDHWNNEKERILL [Q4N], the protein stability index was found to be 1.82.

For ETIGGFWLLTKIDHWNNEKERILL [Q4G], the protein stability index came out at 2.68.

On to ETIQGFWTLTKIDHWNNEKERILL [L8T], for which the protein stability index was found to be 2.54.

Turning to ETIQGFWRLTKIDHWNNEKERILL [L8R], the protein stability index turned out to be 2.26.

Consider ETIQGFWNLTKIDHWNNEKERILL [L8N], for which the protein stability index is 1.99.

On to ETIQGFWSLTKIDHWNNEKERILL [L8S], for which the protein stability index came out at 1.56.

On to ETIQGFWDLTKIDHWNNEKERILL [L8D], for which the protein stability index is 2.34.

On to ETIQGFWQLTKIDHWNNEKERILL [L8Q], for which the protein stability index came to 1.53.

Take ETIQGFWALTKIDHWNNEKERILL [L8A]: the protein stability index amounted to 2.08.

ETIQGFWYLTKIDHWNNEKERILL [L8Y]: the protein stability index was 4.07.

ETIQGFWPLTKIDHWNNEKERILL [L8P]: the protein stability index was 1.43.

In the case of ETIQGFWKLTKIDHWNNEKERILL [L8K], the protein stability index worked out at 3.05.

Turning to ETIQGFWGLTKIDHWNNEKERILL [L8G], the protein stability index turned out to be 1.61.

As for ETIQGFWWLTKIDHWNNEKERILL [L8W], the protein stability index was 1.43.

ETIQGFWVLTKIDHWNNEKERILL [L8V]: the protein stability index was 2.27.

For ETIQGFWELTKIDHWNNEKERILL [L8E], the protein stability index is 2.42.

Consider ETIQGFWHLTKIDHWNNEKERILL [L8H], for which the protein stability index was determined as 2.04.

ETIQGFWLLSKIDHWNNEKERILL [T10S]: the protein stability index turned out to be 2.49.

As to ETIQGFWLLEKIDHWNNEKERILL [T10E], the protein stability index was found to be 2.91.

Turning to ETIQGFWLLRKIDHWNNEKERILL [T10R], the protein stability index was determined as 1.01.

Turning to ETIQGFWLLNKIDHWNNEKERILL [T10N], the protein stability index came to 1.34.

Regarding ETIQGFWLLPKIDHWNNEKERILL [T10P], the protein stability index was determined as 1.65.

As to ETIQGFWLLFKIDHWNNEKERILL [T10F], the protein stability index was 1.96.

As for ETIQGFWLLGKIDHWNNEKERILL [T10G], the protein stability index is 2.35.

As to ETIQGFWLLYKIDHWNNEKERILL [T10Y], the protein stability index is 2.44.

In the case of ETIQGFWLLWKIDHWNNEKERILL [T10W], the protein stability index was determined as 2.45.

In the case of ETIQGFWLLIKIDHWNNEKERILL [T10I], the protein stability index came out at 3.71.

For the variant ETIQGFWLLHKIDHWNNEKERILL [T10H], the protein stability index came to 2.31.

With ETIQGFWLLDKIDHWNNEKERILL [T10D], the protein stability index was 1.8.

As for ETIQGFWLLAKIDHWNNEKERILL [T10A], the protein stability index stood at 3.73.

Take ETIQGFWLTTKIDHWNNEKERILL [L9T]: the protein stability index came out at 1.33.

For ETIQGFWLQTKIDHWNNEKERILL [L9Q], the protein stability index came out at 1.65.

As to ETIQGFWLHTKIDHWNNEKERILL [L9H], the protein stability index worked out at 1.87.

On to ETIQGFWLKTKIDHWNNEKERILL [L9K], for which the protein stability index was determined as 1.54.

ETIQGFWLITKIDHWNNEKERILL [L9I]: the protein stability index turned out to be 3.

On to ETIQGFWLRTKIDHWNNEKERILL [L9R], for which the protein stability index came to 1.49.

As for ETIQGFWLPTKIDHWNNEKERILL [L9P], the protein stability index turned out to be 2.7.

For ETIQGFWLFTKIDHWNNEKERILL [L9F], the protein stability index is 3.19.

In the case of ETIQGFWLMTKIDHWNNEKERILL [L9M], the protein stability index was 2.1.

Regarding ETIQGFWLDTKIDHWNNEKERILL [L9D], the protein stability index was 1.58.

Regarding ETIQGFWLETKIDHWNNEKERILL [L9E], the protein stability index stood at 2.2.

Consider ETIQGFWLCTKIDHWNNEKERILL [L9C], for which the protein stability index is 2.35.

On to ETIQGFWLNTKIDHWNNEKERILL [L9N], for which the protein stability index stood at 1.16.

In the case of ETIQGFWLSTKIDHWNNEKERILL [L9S], the protein stability index was 2.88.

ETIQGFWLGTKIDHWNNEKERILL [L9G]: the protein stability index came out at 2.15.

With ETIQGFCLLTKIDHWNNEKERILL [W7C], the protein stability index worked out at 3.25.

Take ETIQGFPLLTKIDHWNNEKERILL [W7P]: the protein stability index amounted to 2.56.
